± gives the uncertainty stated by the source.

This data set is described as follows: self-splicing fitness, log relative to wild type (ln ratio); higher = more splicing; Tetrahymena group I intron in knt gene, E. coli kanamycin selection, DiMSum; sequences stand for … in CUCUCU…GGAGGGAAAAGUUAUCAGGCAUGCACCUGGUAGCUAGUCUUUAAACCAAUAGAUUGCAUCGGUUUAAAAGGCAAGACCGUCAAAUUGCGGGAAAGGGGUCAACAGCCGUUCAGUACCAAGUCUCAGGGGAAACUUUGAGAUGGCCUUGCAAAGGGUAUGGUAAUAAGCUGACGGACAUGGUCCUAACCACGCAGCCAAGUCCUAAGUCAACAGAUCUUCUGUUGAUAUGGAUGCAGUUCACAGACUAAAUGUCGGUCGGGGAAGAUGUAUUCUUCUCAUAAGAUAUAGUCGGACCUCUCCUUAAUGGGAGCUAGCGGAUGAAGUGAUGCAACACUGGAGCCGCUGGGAACUAAUUUGUAUGCGAAAGUAUAUUGAUUAGUUUUGGAGUACUCGUGGUCG
In outline:
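Library with all eight P1ex-region intron nucleotides randomised, intron inside the knt kanamycin-resistance gene on pET-22b(+), in E. coli BL21(DE3). Cells grew overnight at 37°C or 30°C on LB agar with or without 25 μg/mL kanamycin (plus 100 μg/mL carbenicillin, 50 μM IPTG, 0.2% rhamnose), in six replicate transformations. Pooled colonies were amplicon-sequenced on Illumina HiSeq 2500. DiMSum fitness is the error-weighted combination of wild-type-normalised replicate fold changes, kanamycin versus none.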

For the sequence CGGAAGCAAUAUUACGUCUC, the “self-splicing fitness (ln)” value reads like this: (30 °C) -4.07 ± 0.39; (37 °C) -2.3 ± 0.19.
The like results for GCCAAGCAAUAUUACGGGGG were, in that order, -4.11 ± 0.19 and -2.35 ± 0.14.
The like results for AGAAAGCAAUAUUACGCCUU were, in that order, -1.29 ± 0.12 and -1.69 ± 0.14.
Turning to CUCAAGCAAUAUUACGGCAU, the “self-splicing fitness (ln)” value runs as follows: (30 °C) -2.66 ± 0.18; (37 °C) -1.58 ± 0.24.
The like results for CGAUAGCAAUAUUACGAAUG were, in that order, -0.898 ± 0.082 and 0.443 ± 0.11.
The like results for AGAGAGCAAUAUUACGAUCA were, in that order, -1.93 ± 0.16 and -1.44 ± 0.17.
For the sequence CGGUAGCAAUAUUACGGGUU, the “self-splicing fitness (ln)” value is -3.51 ± 0.21 (30 °C) and -3.67 ± 0.22 (37 °C).
For the sequence GGGUAGCAAUAUUACGCGGG, the “self-splicing fitness (ln)” value by setting is: (30 °C) -2.2 ± 0.26; (37 °C) -2.42 ± 0.23.
AUUAAGCAAUAUUACGCAGU: the “self-splicing fitness (ln)” value is -3.15 ± 0.21 (30 °C) and -2.48 ± 0.21 (37 °C).
The like results for CAUCAGCAAUAUUACGGGCU were, in that order, -4.04 ± 0.31 and -2.48 ± 0.2.
The like results for CUGGAGCAAUAUUACGGGAA were, in that order, -2.68 ± 0.31 and -2.36 ± 0.27.
The like results for GUAUAGCAAUAUUACGAAGU were, in that order, -3.25 ± 0.21 and -1.81 ± 0.18.
Consider UUUCAGCAAUAUUACGAUCA, for which the “self-splicing fitness (ln)” value by setting is: (30 °C) 0.131 ± 0.14; (37 °C) 0.086 ± 0.14.
For GCUAAGCAAUAUUACGGUUA, in that order: -1.33 ± 0.1 and -1.49 ± 0.094.
For UGGUAGCAAUAUUACGUCAA, in that order: -2.31 ± 0.19 and -0.773 ± 0.15.
For AGUUAGCAAUAUUACGCACA, in that order: 0.242 ± 0.2 and 0.395 ± 0.28.
As for UUCAAGCAAUAUUACGUUGG, the “self-splicing fitness (ln)” value (30 °C) is -2.28 ± 0.17 and the “self-splicing fitness (ln)” value (37 °C) was -1.66 ± 0.24.
For UCCGAGCAAUAUUACGAUAC, in that order: -4.73 ± 0.46 and -2.96 ± 0.35.
Consider UAAAAGCAAUAUUACGUCCC, for which the “self-splicing fitness (ln)” value is, setting by setting: (30 °C) -2.74 ± 0.32; (37 °C) -0.909 ± 0.24.
Consider UGAUAGCAAUAUUACGGCUU, for which the “self-splicing fitness (ln)” value was -1.2 ± 0.19 (30 °C) and 0.584 ± 0.17 (37 °C).
For GCCGAGCAAUAUUACGAGGA, in that order: -1.32 ± 0.11 and -0.747 ± 0.1.
For ACCAAGCAAUAUUACGAACC, in that order: -1.62 ± 0.1 and -0.978 ± 0.12.
GACCAGCAAUAUUACGUGGU: the “self-splicing fitness (ln)” value is -2.67 ± 0.095 (30 °C) and -3.29 ± 0.15 (37 °C).
Regarding GUCUAGCAAUAUUACGCAAU, the “self-splicing fitness (ln)” value reads like this: (30 °C) -0.524 ± 0.082; (37 °C) -0.156 ± 0.082.
Regarding GCAAAGCAAUAUUACGAGUU, the “self-splicing fitness (ln)” value by setting is: (30 °C) -2.47 ± 0.11; (37 °C) -0.891 ± 0.093.
UAAGAGCAAUAUUACGCACA: the “self-splicing fitness (ln)” value (37 °C) was -1.42 ± 0.33.
GACUAGCAAUAUUACGACAU: the “self-splicing fitness (ln)” value is, setting by setting: (30 °C) -0.511 ± 0.012; (37 °C) -0.122 ± 0.032.
For AGGCAGCAAUAUUACGUGAG, in that order: -0.654 ± 0.066 and -0.526 ± 0.09.
With AGGGAGCAAUAUUACGAGGG, for the setting “37 °C”, the “self-splicing fitness (ln)” value is -2.2 ± 0.5.
With CUGAAGCAAUAUUACGUAUG, the “self-splicing fitness (ln)” value (30 °C) was -0.151 ± 0.056 and the “self-splicing fitness (ln)” value (37 °C) was -0.154 ± 0.068.
Regarding GAGGAGCAAUAUUACGAGCU, the “self-splicing fitness (ln)” value (37 °C) is -1.77 ± 0.47.
As to GUGGAGCAAUAUUACGAUCC, the “self-splicing fitness (ln)” value is, setting by setting: (30 °C) -2.49 ± 0.2; (37 °C) -1.13 ± 0.28.
The like results for GAUCAGCAAUAUUACGAACU were, in that order, -0.585 ± 0.056 and 0.06 ± 0.073.
Regarding CCGCAGCAAUAUUACGAUUA, the “self-splicing fitness (ln)” value was -3.03 ± 0.23 (30 °C) and -2.72 ± 0.29 (37 °C).
With UUUCAGCAAUAUUACGAAAC, the “self-splicing fitness (ln)” value (37 °C) was -2.53 ± 0.3.
CUGAAGCAAUAUUACGAGAA: the “self-splicing fitness (ln)” value (30 °C) is -3.29 ± 0.3.
On to GUGUAGCAAUAUUACGGGAG, for which the “self-splicing fitness (ln)” value is -3.55 ± 0.2 (30 °C) and -2.88 ± 0.18 (37 °C).
The like results for CGCUAGCAAUAUUACGACGU were, in that order, -1.86 ± 0.1 and -0.355 ± 0.12.
The like results for UUUCAGCAAUAUUACGUCAU were, in that order, -3.32 ± 0.24 and -2.47 ± 0.35.
Regarding GGUCAGCAAUAUUACGCUAC, the “self-splicing fitness (ln)” value is, setting by setting: (30 °C) -3.55 ± 0.28; (37 °C) -2.17 ± 0.16.
For the sequence AUGGAGCAAUAUUACGGUCA, the “self-splicing fitness (ln)” value (30 °C) is -2.19 ± 0.24 and the “self-splicing fitness (ln)” value (37 °C) is -0.926 ± 0.2.
The like results for AUAGAGCAAUAUUACGCACU were, in that order, -0.797 ± 0.14 and 0.815 ± 0.14.
UAGCAGCAAUAUUACGCUCG: the “self-splicing fitness (ln)” value was -1 ± 0.12 (30 °C) and 0.142 ± 0.14 (37 °C).
Consider AUAUAGCAAUAUUACGAUCG, for which the “self-splicing fitness (ln)” value is, setting by setting: (30 °C) -1.94 ± 0.12; (37 °C) -0.815 ± 0.14.
Consider UAUAAGCAAUAUUACGUUGA, for which the “self-splicing fitness (ln)” value is -3.52 ± 0.22 (30 °C) and -1.25 ± 0.12 (37 °C).
For GAGAAGCAAUAUUACGCUUC, in that order: -2.79 ± 0.26 and -2.89 ± 0.38.
Regarding CAGGAGCAAUAUUACGAGAU, the “self-splicing fitness (ln)” value was -3.82 ± 0.29 (30 °C) and -3.8 ± 0.39 (37 °C).
For GCUGAGCAAUAUUACGCUGG, in that order: -3.26 ± 0.31 and -2.22 ± 0.42.
In the case of GACCAGCAAUAUUACGUGUG, the “self-splicing fitness (ln)” value runs as follows: (30 °C) -0.363 ± 0.047; (37 °C) -0.452 ± 0.058.
ACGAAGCAAUAUUACGUCGC: the “self-splicing fitness (ln)” value is, setting by setting: (30 °C) -3.22 ± 0.21; (37 °C) -1.24 ± 0.17.
With GCCCAGCAAUAUUACGGGUU, the “self-splicing fitness (ln)” value runs as follows: (30 °C) -3.01 ± 0.12; (37 °C) -3.4 ± 0.19.
As for CAUGAGCAAUAUUACGAGAG, the “self-splicing fitness (ln)” value reads like this: (30 °C) -3.22 ± 0.16; (37 °C) -3.27 ± 0.23.
With UCCUAGCAAUAUUACGCCGG, the “self-splicing fitness (ln)” value (37 °C) was -1.88 ± 0.3.
AACUAGCAAUAUUACGAUUA: the “self-splicing fitness (ln)” value was -0.307 ± 0.087 (30 °C) and -0.0303 ± 0.11 (37 °C).
The like results for CAUCAGCAAUAUUACGAACA were, in that order, -2.82 ± 0.25 and -1.85 ± 0.21.
For AACUAGCAAUAUUACGGACA, in that order: -0.804 ± 0.15 and -0.48 ± 0.13.
For CUUCAGCAAUAUUACGUGGC, in that order: -2.61 ± 0.23 and -2.08 ± 0.43.
For the sequence CUGGAGCAAUAUUACGUGGG, the “self-splicing fitness (ln)” value runs as follows: (30 °C) -3.7 ± 0.2; (37 °C) -2.52 ± 0.26.
Take CCACAGCAAUAUUACGGCAC: the “self-splicing fitness (ln)” value by setting is: (30 °C) -4.06 ± 0.21; (37 °C) -2.87 ± 0.22.
CACGAGCAAUAUUACGCAUG: the “self-splicing fitness (ln)” value reads like this: (30 °C) -3.6 ± 0.11; (37 °C) -2.74 ± 0.15.
The like results for CACGAGCAAUAUUACGUUCC were, in that order, -2.89 ± 0.34 and -2.15 ± 0.34.
Take AACGAGCAAUAUUACGUACU: the “self-splicing fitness (ln)” value was -1.04 ± 0.067 (30 °C) and -1.04 ± 0.079 (37 °C).
Consider ACCUAGCAAUAUUACGGAGG, for which the “self-splicing fitness (ln)” value is -2.4 ± 0.14 (30 °C) and -2.16 ± 0.21 (37 °C).
On to GGACAGCAAUAUUACGUCGC, for which the “self-splicing fitness (ln)” value is, setting by setting: (30 °C) -3.12 ± 0.18; (37 °C) 0.343 ± 0.15.
As to GGUAAGCAAUAUUACGCUAG, the “self-splicing fitness (ln)” value is, setting by setting: (30 °C) -4.34 ± 0.36; (37 °C) -2.92 ± 0.29.
UCUGAGCAAUAUUACGAUUG: the “self-splicing fitness (ln)” value was -2.97 ± 0.27 (30 °C) and -2.39 ± 0.33 (37 °C).
For GUAUAGCAAUAUUACGGGCG, in that order: -2.27 ± 0.17 and -0.207 ± 0.18.
Take UGCCAGCAAUAUUACGUCCU: the “self-splicing fitness (ln)” value is, setting by setting: (30 °C) -1.6 ± 0.14; (37 °C) 0.244 ± 0.14.
The like results for AACAAGCAAUAUUACGCCUA were, in that order, -0.12 ± 0.059 and 0.231 ± 0.065.
For GAUCAGCAAUAUUACGGUAA, in that order: -0.559 ± 0.075 and 0.194 ± 0.07.
For CCGAAGCAAUAUUACGCGUA, in that order: -3.7 ± 0.23 and -2.84 ± 0.2.
As for UAAAAGCAAUAUUACGGGAU, the “self-splicing fitness (ln)” value is -3.01 ± 0.27 (30 °C) and -2.23 ± 0.18 (37 °C).
For the sequence UGUAAGCAAUAUUACGCUUG, the “self-splicing fitness (ln)” value reads like this: (30 °C) -4.2 ± 0.42; (37 °C) -1.99 ± 0.21.
For AACUAGCAAUAUUACGUCCG, in that order: -1.74 ± 0.11 and -0.228 ± 0.13.
For AUAUAGCAAUAUUACGCUUU, in that order: -2.12 ± 0.41 and -1.34 ± 0.31.
For the sequence AUAAAGCAAUAUUACGGAAG, the “self-splicing fitness (ln)” value was -2.3 ± 0.098 (30 °C) and -0.18 ± 0.11 (37 °C).
For UGGCAGCAAUAUUACGCCAA, in that order: -1.03 ± 0.13 and -0.634 ± 0.12.

(Values after the supplement of paper PMC7877785.)
